Assay [1] has as its target T1, human Napi2c-mCherry on HEK293 cells (human, UniProt Q8N130 1-599).
T1 construct: whole, on cells; also called Napi2c (SLC34A3); not shown: mCherry fusion
T1 sequence (looked up): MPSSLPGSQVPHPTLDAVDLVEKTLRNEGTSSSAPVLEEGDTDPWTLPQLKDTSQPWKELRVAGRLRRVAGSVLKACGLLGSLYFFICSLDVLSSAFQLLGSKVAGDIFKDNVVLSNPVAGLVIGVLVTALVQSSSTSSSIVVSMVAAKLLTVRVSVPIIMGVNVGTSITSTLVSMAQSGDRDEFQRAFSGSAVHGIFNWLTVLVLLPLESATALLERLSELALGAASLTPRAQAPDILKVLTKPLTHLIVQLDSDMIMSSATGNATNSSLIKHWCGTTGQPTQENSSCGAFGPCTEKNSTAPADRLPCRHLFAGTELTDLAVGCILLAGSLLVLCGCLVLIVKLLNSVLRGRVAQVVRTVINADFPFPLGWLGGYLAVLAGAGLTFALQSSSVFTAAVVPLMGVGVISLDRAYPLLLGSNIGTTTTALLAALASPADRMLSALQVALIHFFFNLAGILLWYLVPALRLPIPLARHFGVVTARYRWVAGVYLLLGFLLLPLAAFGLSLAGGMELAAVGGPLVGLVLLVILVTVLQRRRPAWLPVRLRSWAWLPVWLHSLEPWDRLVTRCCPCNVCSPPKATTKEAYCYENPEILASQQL
Kind of assay: flow cytometry on HEK293 cells expressing human Napi2c-mCherry (panel Napi2c-HEK293), MFI ratio to the non-specific binding control. On the technique in general: Flow cytometry measures light scatter and fluorescence of single cells or particles in a stream.

A further assay deals with T2, FcγRIIIa (CD16) (F158) (Homo sapiens, UniProt P08637).
T2 construct: m21 joins both polymorphic variants; also called F158 variant of m21
T2 sequence (P08637 17-208 limits assumed): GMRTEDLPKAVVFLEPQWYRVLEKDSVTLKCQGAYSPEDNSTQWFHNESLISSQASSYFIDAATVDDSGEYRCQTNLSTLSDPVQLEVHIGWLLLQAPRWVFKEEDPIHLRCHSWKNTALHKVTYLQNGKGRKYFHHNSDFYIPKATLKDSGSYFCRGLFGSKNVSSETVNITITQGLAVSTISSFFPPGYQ
Kind of assay: Lumit FcγRIIIa (F158) Binding Immunoassay (Promega), right panel FcγRIIIa (CD16) (F158), competition with Tracer-LgBiT for FcγR-SmBiT, falling luminescence means binding, n=1.

In assay [2] the target is T3, recombinant human FcγRI (FcγR-SmBiT, Lumit assay) (human, UniProt P12314 16-292).
T3 construct: Kit reagent (Promega); also called FcγRI (CD64); not shown: SmBiT label of the kit
T3 sequence (P12314 16-292): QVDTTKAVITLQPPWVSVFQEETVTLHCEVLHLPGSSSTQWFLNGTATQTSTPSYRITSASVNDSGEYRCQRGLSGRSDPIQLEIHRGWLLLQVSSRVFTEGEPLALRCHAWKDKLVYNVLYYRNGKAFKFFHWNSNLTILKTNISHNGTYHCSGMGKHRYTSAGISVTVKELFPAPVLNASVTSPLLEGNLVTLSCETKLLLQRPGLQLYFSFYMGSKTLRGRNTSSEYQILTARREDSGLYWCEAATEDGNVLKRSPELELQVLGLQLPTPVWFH
Kind of assay: Lumit FcγRI Binding Immunoassay (Promega), competition with Tracer-LgBiT for FcγRI-SmBiT, falling luminescence means binding, n=1.

The target of the next assay is T4, FcγRIIa (CD32) (H131) (Fused to the SmBiT luciferase fragment (Promega Lumit reagent), not carried in the letters).
T4 construct: m20 joins both polymorphic variants; also called H131 variant of m20; not shown: SmBiT tag (and any linker or purification tag) of Promega's FcγR-SmBiT fusion
T4 chain: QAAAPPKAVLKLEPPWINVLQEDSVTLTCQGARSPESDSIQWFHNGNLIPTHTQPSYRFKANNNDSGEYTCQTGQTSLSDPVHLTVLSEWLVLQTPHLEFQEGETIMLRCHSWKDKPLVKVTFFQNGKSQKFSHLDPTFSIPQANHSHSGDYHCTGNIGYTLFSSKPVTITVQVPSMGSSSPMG
Kind of assay: Lumit FcγRIIa (H131) Binding Immunoassay (Promega), left panel FcγRIIa (CD32) (H131), competition with Tracer-LgBiT for FcγR-SmBiT, n=1.

Assay [3] addresses T5, human Napi2b-mCherry on HEK293 cells (human, UniProt O95436 1-690).
T5 construct: also called Napi2b (SLC34A2); HEK293 cells overexpressing Napi2b
T5 sequence: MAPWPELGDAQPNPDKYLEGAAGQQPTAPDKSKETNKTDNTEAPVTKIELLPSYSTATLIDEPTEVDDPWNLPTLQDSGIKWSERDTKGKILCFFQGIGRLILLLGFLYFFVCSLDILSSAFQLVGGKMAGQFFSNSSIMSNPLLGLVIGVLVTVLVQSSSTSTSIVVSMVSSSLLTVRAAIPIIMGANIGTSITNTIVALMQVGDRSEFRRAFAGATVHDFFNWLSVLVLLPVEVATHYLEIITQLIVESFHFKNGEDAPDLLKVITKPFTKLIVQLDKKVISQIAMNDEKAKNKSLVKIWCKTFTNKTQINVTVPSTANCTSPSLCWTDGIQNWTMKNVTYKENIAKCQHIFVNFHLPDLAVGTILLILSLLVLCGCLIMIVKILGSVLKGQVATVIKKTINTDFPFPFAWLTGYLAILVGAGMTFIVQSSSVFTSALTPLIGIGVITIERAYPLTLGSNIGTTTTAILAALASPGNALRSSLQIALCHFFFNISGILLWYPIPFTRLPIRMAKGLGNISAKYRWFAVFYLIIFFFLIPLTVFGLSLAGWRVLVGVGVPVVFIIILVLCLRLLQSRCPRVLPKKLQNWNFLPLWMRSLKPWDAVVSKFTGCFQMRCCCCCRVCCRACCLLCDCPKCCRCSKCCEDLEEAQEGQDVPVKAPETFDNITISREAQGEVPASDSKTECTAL
Kind of assay: flow cytometry on HEK293 cells expressing human Napi2b-mCherry (panel Napi2b-HEK293), Alexa-dye anti-human IgG H+L secondary antibody, MFI ratio to the non-specific binding control.

A further assay concerns the target T6, FcγRIIIa (CD16) (V158) (Homo sapiens, UniProt P08637).
T6 construct: m21 joins both polymorphic variants; also called V158 variant of m21
Kind of assay: Lumit FcγRIIIa (V158) Binding Immunoassay (Promega), left panel FcγRIIIa (CD16) (V158), competition with Tracer-LgBiT for FcγR-SmBiT, falling luminescence means binding, n=1.

Assay [4] deals with T7, human NaPi2b on NaPi2b-positive cell lines OVCAR-3 and HCC-78 (human, UniProt O95436 1-690).
T7 sequence: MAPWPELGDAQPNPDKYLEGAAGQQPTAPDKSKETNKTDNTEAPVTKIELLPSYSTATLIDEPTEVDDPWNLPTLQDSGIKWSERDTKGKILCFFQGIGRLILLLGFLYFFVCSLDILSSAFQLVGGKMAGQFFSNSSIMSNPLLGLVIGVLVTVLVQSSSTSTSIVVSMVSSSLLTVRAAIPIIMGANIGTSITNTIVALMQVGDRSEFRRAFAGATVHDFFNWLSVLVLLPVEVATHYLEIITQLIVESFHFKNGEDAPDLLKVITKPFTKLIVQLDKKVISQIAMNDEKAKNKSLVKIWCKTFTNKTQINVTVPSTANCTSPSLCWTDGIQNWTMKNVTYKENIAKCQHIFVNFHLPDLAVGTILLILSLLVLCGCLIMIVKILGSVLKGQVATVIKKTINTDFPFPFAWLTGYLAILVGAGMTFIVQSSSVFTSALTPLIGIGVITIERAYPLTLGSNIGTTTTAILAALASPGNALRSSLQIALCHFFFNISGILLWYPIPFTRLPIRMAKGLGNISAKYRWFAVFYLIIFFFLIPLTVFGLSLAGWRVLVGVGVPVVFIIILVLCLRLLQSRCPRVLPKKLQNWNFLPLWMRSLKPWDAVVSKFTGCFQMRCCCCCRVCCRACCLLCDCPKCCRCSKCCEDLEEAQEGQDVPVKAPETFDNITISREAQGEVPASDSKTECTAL
Kind of assay: cell-based or functional assay.

In assay [5] the target is T8, human Napi2a-mCherry on HEK293 cells (human, UniProt Q06495 1-639).
T8 construct: whole, on cells; also called Napi2a (SLC34A1); not shown: mCherry fusion
T8 sequence (looked up): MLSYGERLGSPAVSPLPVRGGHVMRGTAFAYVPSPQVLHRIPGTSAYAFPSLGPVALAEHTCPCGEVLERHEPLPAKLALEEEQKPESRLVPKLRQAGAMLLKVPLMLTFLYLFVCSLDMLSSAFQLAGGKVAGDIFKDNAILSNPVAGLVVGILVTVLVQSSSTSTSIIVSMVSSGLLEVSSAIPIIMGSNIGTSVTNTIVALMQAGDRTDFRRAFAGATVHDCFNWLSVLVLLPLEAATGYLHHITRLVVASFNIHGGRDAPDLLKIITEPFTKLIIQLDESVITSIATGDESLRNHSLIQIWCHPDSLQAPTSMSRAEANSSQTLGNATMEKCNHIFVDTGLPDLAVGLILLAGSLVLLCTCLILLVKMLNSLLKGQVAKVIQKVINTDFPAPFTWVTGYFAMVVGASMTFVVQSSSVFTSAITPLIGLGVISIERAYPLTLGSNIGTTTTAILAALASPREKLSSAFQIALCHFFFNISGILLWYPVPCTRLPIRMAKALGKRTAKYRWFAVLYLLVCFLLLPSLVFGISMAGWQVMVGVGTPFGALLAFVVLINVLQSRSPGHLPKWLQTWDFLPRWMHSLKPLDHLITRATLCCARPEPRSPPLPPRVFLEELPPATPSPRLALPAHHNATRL
Kind of assay: flow cytometry on HEK293 cells expressing human Napi2a-mCherry (panel Napi2a-HEK293), MFI ratio to the non-specific binding control.

By EC50 (read off the curve) is commonly meant the midpoint of the concentration-response curve.

T6 sequence (P08637 17-208 F176V limits assumed): as the sequence (P08637 17-208 limits assumed) above, with F160V counted along it

B1: AV25-P5(PEG24)-VC-PAB-Exatecan DAR8 ADC (antibody, human IgG1, kappa, L234A L235A)
heavy: not shown
light: DIQMTQSPSSLSASVGDRVTITCSASQDIGNFLNWYQQKPGKTVKVLIYYASSLYSGVPSRFSGSGSGTDYTLTISSLQPEDFATYYCQQYSKLPLTFGQGTKLELKRTVAAPSVFIFPPSDEQLKSGTASVVCLLNNFYPREAKVQWKVDNALQSGNSQESVTEQDSKDSTYSLSSTLTLSKADYEKHKVYACEVTHQGLSSPVTKSFNRGEC
modifications: P5(PEG24)-VC-PAB-Exatecan linker-payload on the interchain cysteine (1 per light chain, DAR8); P5(PEG24)-VC-PAB-Exatecan linker-payload on interchain cysteines (up to 3 per heavy chain, DAR8)
notes: also called TUB-040
Regarding B1, the binding result in assay [1] was “no binding (tested: 200 nM)”; in the assay with FcγRIIIa (CD16) (F158), “binds”; in assay [2], “binds”; with FcγRIIa (CD32) (H131), “no binding”; with FcγRIIIa (CD16) (V158) it was “binds”; in assay [5] it was “no binding (tested: 200 nM)”. Also, in assay [3], the “EC50 (read off the curve)” value was around 0.9 nM. Moreover, the “IC50 of cytotoxicity (resazurin assay, 7 days) on HCC-78, against the anti-Napi2b comparison ADC” value in assay [4] turned out to be 15.5 fold lower IC50.

For the origin of these results see US20240182596A1 (TUBULIS, published 2024).
